These results are taken from patent US12139520B2 (priority 2020, dated 2024).

The target of one assay is T1, hAMY3R (human, UniProt P30988).
T1 sequence 1: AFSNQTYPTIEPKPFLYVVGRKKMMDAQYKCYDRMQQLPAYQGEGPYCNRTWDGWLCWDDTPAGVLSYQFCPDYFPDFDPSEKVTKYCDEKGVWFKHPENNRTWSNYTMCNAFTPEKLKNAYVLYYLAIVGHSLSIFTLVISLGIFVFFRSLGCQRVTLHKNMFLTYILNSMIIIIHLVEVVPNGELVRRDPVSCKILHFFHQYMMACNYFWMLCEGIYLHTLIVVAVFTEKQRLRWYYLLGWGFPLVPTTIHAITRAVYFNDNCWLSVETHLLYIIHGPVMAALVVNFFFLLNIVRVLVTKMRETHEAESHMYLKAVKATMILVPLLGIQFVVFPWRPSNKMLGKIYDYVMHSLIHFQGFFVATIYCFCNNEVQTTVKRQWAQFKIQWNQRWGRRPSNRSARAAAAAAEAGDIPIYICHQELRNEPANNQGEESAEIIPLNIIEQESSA
T1 sequence 2: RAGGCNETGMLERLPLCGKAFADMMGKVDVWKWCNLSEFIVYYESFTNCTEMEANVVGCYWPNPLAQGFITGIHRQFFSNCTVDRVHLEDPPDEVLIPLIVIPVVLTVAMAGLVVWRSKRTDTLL
Briefly: cell-based or functional assay.

For a further assay, the target named is hAM1R (human, UniProt Q16602). The assay is described as follows: cell-based or functional assay.

Bridge positions count the residues as written; N and C are the ends. Square brackets hold non-standard residues; d marks the D form. Ends that are not written are not given here. Hyp = O=C(O)[C@@H]1C[C@@H](O)CN1; Cit = NC(=O)NCCC[C@H](N)C(=O)O

Turning to GCRFGTCTVQ[Cit]LAHQIYQFTDKDKDNVAPRTNVSPQGY-NH2 (disulfide 2-7 (inferred); ends not checked) [SEQ ID NO: 278], the “hAMY3R EC50 (cAMP)” value with hAMY3R came out at 0.011 nM. Besides, the “hAM1R EC50 (cAMP)” value with hAM1R came to 155 nM.
Take GCRTGTCTVQ[Cit]LAHQIYQFTDKDKDNVAPRTKIGPNG[Hyp]-NH2 (disulfide 2-7 (inferred); ends not checked) [SEQ ID NO: 277]: in the assay with hAMY3R, the “hAMY3R EC50 (cAMP)” value stood at 0.058 nM. Moreover, the “hAM1R EC50 (cAMP)” value in the assay with hAM1R is > 5000 nM.
Taken in the same sequence, the figures for GCRFGTCTVQ[Cit]LAHQIYQFTDKDKDNVAPRTKISPNG[Hyp]-NH2 (disulfide 2-7 (inferred); ends not checked) [SEQ ID NO: 275] were 0.02 nM and > 5000 nM.
On to KCNTATCTVQRLAHQIYQFTDKDKDNAAPPTNVGSNG[Hyp]-NH2 (disulfide 2-7 (inferred); ends not checked) [SEQ ID NO: 27], for which the “hAMY3R EC50 (cAMP)” value with hAMY3R was determined as 0.008 nM. In addition, the “hAM1R EC50 (cAMP)” value in the assay with hAM1R is > 5000 nM.
KCNTATCTVQRLAHQIYQFTDKDKDNVAPATNVGSNG[Hyp]-NH2 (disulfide 2-7 (inferred); ends not checked) [SEQ ID NO: 28]: the “hAMY3R EC50 (cAMP)” value in the assay with hAMY3R came to 0.008 nM. Besides, in the assay with hAM1R, the “hAM1R EC50 (cAMP)” value was > 5000 nM.
Consider GCRFGTCTVQ[Cit]LAHFLYQFTDKDKDNVAPRTNVGPQGY-NH2 (disulfide 2-7 (inferred); ends not checked) [SEQ ID NO: 263], for which, in the assay with hAMY3R, the “hAMY3R EC50 (cAMP)” value amounted to 0.005 nM. Further, the “hAM1R EC50 (cAMP)” value with hAM1R was 1280 nM.
On to GCRTGTCTVQ[Cit]LAHQIYQFTDKDKDNVAPRTNVGPQGY-NH2 (disulfide 2-7 (inferred); ends not checked) [SEQ ID NO: 273], for which the “hAMY3R EC50 (cAMP)” value with hAMY3R came to 0.021 nM. Further, the “hAM1R EC50 (cAMP)” value in the assay with hAM1R is > 5000 nM.
For the molecule GCRFGTCTVQ[Cit]LAHQIYQFTDKDKDNVAPRTNVGPQG[Hyp]-NH2 (disulfide 2-7 (inferred); ends not checked) [SEQ ID NO: 267], the “hAMY3R EC50 (cAMP)” value with hAMY3R amounted to 0.007 nM. Moreover, the “hAM1R EC50 (cAMP)” value in the assay with hAM1R came to 2490 nM.
For the molecule GCRFGTCTVQ[Cit]LAHQIYQFTDKDKDNVAPRTKIGPQG[Hyp]-NH2 (disulfide 2-7 (inferred); ends not checked) [SEQ ID NO: 274], the “hAMY3R EC50 (cAMP)” value with hAMY3R was 0.019 nM. Also, in the assay with hAM1R, the “hAM1R EC50 (cAMP)” value was determined as 877 nM.
Consider KCNTATCTVQ[Cit]LAHQIYQATDKDKDNVAPPTNVGSNG[Hyp]-NH2 (disulfide 2-7 (inferred); ends not checked) [SEQ ID NO: 276], for which the “hAMY3R EC50 (cAMP)” value with hAMY3R turned out to be 0.056 nM. In the assay with hAM1R, the “hAM1R EC50 (cAMP)” value was > 5000 nM.
With GCRFGTCTVQ[Cit]LAHFLYQFTDKDGAIAPRTKIGSQGY-NH2 (disulfide 2-7 (inferred); ends not checked) [SEQ ID NO: 282], the “hAMY3R EC50 (cAMP)” value with hAMY3R turned out to be 0.143 nM. The “hAM1R EC50 (cAMP)” value with hAM1R was determined as 3880 nM.
On the same counts, the results for KCNTATCTVQ[Cit]LAEQIYQFTDKDKDNVSPPTNVGSNG[Hyp]-NH2 (disulfide 2-7 (inferred); ends not checked) [SEQ ID NO: 266] are 0.053 nM and > 5000 nM.
Consider KCNTATCTVQ[Cit]LAHQIYQFTDKDKDNVAAPTNVGSNG[Hyp]-NH2 (disulfide 2-7 (inferred); ends not checked) [SEQ ID NO: 262], for which the “hAMY3R EC50 (cAMP)” value in the assay with hAMY3R came to 0.014 nM. Further, the “hAM1R EC50 (cAMP)” value with hAM1R is > 5000 nM.
For the molecule GCRFGTCTVQ[Cit]LAHQIYQFTDKDKDNVAPRTNVSPNGY-NH2 (disulfide 2-7 (inferred); ends not checked) [SEQ ID NO: 271], the “hAMY3R EC50 (cAMP)” value in the assay with hAMY3R is 0.01 nM. Besides, the “hAM1R EC50 (cAMP)” value in the assay with hAM1R stood at 96.6 nM.
Regarding GCRTGTCTVQ[Cit]LAHQIYQFTDKDKDNVAPRSNVGPQG[Hyp]-NH2 (disulfide 2-7 (inferred); ends not checked) [SEQ ID NO: 281], the “hAMY3R EC50 (cAMP)” value in the assay with hAMY3R is 0.034 nM. Moreover, the “hAM1R EC50 (cAMP)” value with hAM1R was > 5000 nM.
For the molecule RCQTSTCTVA[Cit]LAEQIAQYTDKDKDQVAPPTNVGSNS[Hyp]-NH2 (disulfide 2-7 (inferred); ends not checked) [SEQ ID NO: 256], the “hAMY3R EC50 (cAMP)” value with hAMY3R amounted to 0.007 nM. In the assay with hAM1R, the “hAM1R EC50 (cAMP)” value was > 5000 nM.
In the case of GCRFGTCTVQ[Cit]LAHQIYQFTDKDKDNVAPRTKVGPQG[Hyp]-NH2 (disulfide 2-7 (inferred); ends not checked) [SEQ ID NO: 259], the “hAMY3R EC50 (cAMP)” value with hAMY3R is 0.013 nM. In the assay with hAM1R, the “hAM1R EC50 (cAMP)” value turned out to be 4320 nM.
On the same counts, the results for KCNTATCTVQ[Cit]LAHQIYQFTDKDKDNVAPRTKVGSNGY-NH2 (disulfide 2-7 (inferred); ends not checked) [SEQ ID NO: 257] are 0.016 nM and 2040 nM.
GCRFGTCTVQ[Cit]LAHQIYQFTDKDKDNVAPRTNVGPNG[Hyp]-NH2 (disulfide 2-7 (inferred); ends not checked) [SEQ ID NO: 270]: the “hAMY3R EC50 (cAMP)” value in the assay with hAMY3R amounted to 0.003 nM. Further, the “hAM1R EC50 (cAMP)” value with hAM1R was determined as 1880 nM.
Taken in the same sequence, the figures for KCNTATCTVQ[Cit]LAHQIYQFTDKAKDNVAPPTNVGSNG[Hyp]-NH2 (disulfide 2-7 (inferred); ends not checked) [SEQ ID NO: 258] were 0.01 nM and > 5000 nM.
Take GCRTGTCTVQ[Cit]LAHQIYQFTDKDKDNVAPRTNVGPQG[Hyp]-NH2 (disulfide 2-7 (inferred); ends not checked) [SEQ ID NO: 261]: the “hAMY3R EC50 (cAMP)” value with hAMY3R was determined as 0.018 nM. Also, the “hAM1R EC50 (cAMP)” value with hAM1R is > 5000 nM.
As to GCRFGTCTVQ[Cit]LAHQIYQFTDKDKDNVAPRTNIGPQG[Hyp]-NH2 (disulfide 2-7 (inferred); ends not checked) [SEQ ID NO: 260], in the assay with hAMY3R, the “hAMY3R EC50 (cAMP)” value was found to be 0.011 nM. Further, the “hAM1R EC50 (cAMP)” value with hAM1R came out at 4160 nM.
GCRFGTCTVQ[Cit]LAHQIYQFTDKDKDNVAPRTNVSPQG[Hyp]-NH2 (disulfide 2-7 (inferred); ends not checked) [SEQ ID NO: 283]: the “hAMY3R EC50 (cAMP)” value with hAMY3R worked out at 0.035 nM. Moreover, the “hAM1R EC50 (cAMP)” value with hAM1R is > 5000 nM.
On the same counts, the results for GCRTGTCTVQ[Cit]LAHQIYQFTDKDKDNVAPRTNVGPNGY-NH2 (disulfide 2-7 (inferred); ends not checked) [SEQ ID NO: 269] are 0.005 nM and > 5000 nM.
As to KCNTATCTVQ[Cit]LAHQIYQFTDKDKDNVAPRTEVGSNGY-NH2 (disulfide 2-7 (inferred); ends not checked) [SEQ ID NO: 272], the “hAMY3R EC50 (cAMP)” value with hAMY3R was found to be 0.009 nM. Further, the “hAM1R EC50 (cAMP)” value with hAM1R is > 5000 nM.
For the molecule GCRFGTCTVQ[Cit]LAHFLYQFTDKDKDNVAPRTKVGSNGY-NH2 (disulfide 2-7 (inferred); ends not checked) [SEQ ID NO: 279], the “hAMY3R EC50 (cAMP)” value with hAMY3R is 0.013 nM. Also, the “hAM1R EC50 (cAMP)” value with hAM1R came to 241 nM.
Regarding KCNTATCTVQ[Cit]LAHQIYQFDKDKDNVAPPTNVGSNG[Hyp]-NH2 (disulfide 2-7 (inferred); ends not checked) [SEQ ID NO: 265], in the assay with hAMY3R, the “hAMY3R EC50 (cAMP)” value stood at 0.03 nM. For the same molecule, in the assay with hAM1R, the “hAM1R EC50 (cAMP)” value was > 5000 nM.
KCNTATCTVQ[Cit]LAHQIYQFTDKDKDNVAPPTNVGSNG[Hyp]-NH2 (disulfide 2-7 (inferred); ends not checked) [SEQ ID NO: 268]: the “hAMY3R EC50 (cAMP)” value with hAMY3R worked out at 0.014 nM. For the same molecule, the “hAM1R EC50 (cAMP)” value with hAM1R is > 5000 nM.
For the molecule GCRTGTCTVQ[Cit]LAHQIYQFTDKDKDNVAPRTNIGPQG[Hyp]-NH2 (disulfide 2-7 (inferred); ends not checked) [SEQ ID NO: 280], the “hAMY3R EC50 (cAMP)” value with hAMY3R stood at 0.024 nM. Moreover, the “hAM1R EC50 (cAMP)” value with hAM1R is > 5000 nM.
Consider GCRFGTCTVQ[Cit]LAHFLYQFTDKDKDNVAPRTNVGSNTY-NH2 (disulfide 2-7 (inferred); ends not checked) [SEQ ID NO: 264], for which, in the assay with hAMY3R, the “hAMY3R EC50 (cAMP)” value was found to be 0.006 nM. In addition, the “hAM1R EC50 (cAMP)” value with hAM1R worked out at 3470 nM.
